According to patent US12630594B2, “Allergy antigen and epitope for same” (HOYU CO., LTD., priority 2017, dated 2026):

System: IgE antibody in the serum of a fish-allergic patient
Test: Immunoblotting of two-dimensional electrophoresis patterns of fish meat proteins with patient serum
Format: binding, human
Settings: for spots detected by immunoblotting, different from spots with serum of non-fish-allergic subject: proteins contained in salmon meat, serum from fish-allergic patient 2 (FIG. 1B left); for specific binding to IgE antibodies from fish-allergic patients: spots in two-dimensional electrophoresis gel of proteins in fish, patients diagnosed with immediate-type allergy
Experimental: Proteins contained in fish were analyzed by the aforementioned technique to identify antigens of an allergy to fish. To be specific, proteins were extracted from fish meat and subjected to two-dimensional electrophoresis under the conditions described below.
The electrophoresis in the first dimension was isoelectric focusing, which was performed using isoelectric focusing gels with a gel-strip length of 5 to 10 cm and a gel pH range of 3 to 10. The pH gradient of the gels in the direction of electrophoresis was as follows: with the total gel-strip length being taken as 1, the gel-strip length up to pH 5 was “a=0.15 to 0.3”, the gel-strip length from pH 5 to 7 was “b=0.4 to 0.7”, and the gel-strip length above pH 7 was “c=0.15 to 0.3”. More specifically, the isoelectric focusing was performed using the IPG gels, Immobiline Drystrip (pH3-10NL), produced by GE Healthcare Bio-Sciences Corporation (hereinafter abbreviated as “GE”). The electrophoresis system used was IPGphor produced by GE. The maximum current of the electrophoresis system was limited to 75 μA per gel strip. The voltage program adopted to perform the first-dimensional isoelectric focusing was as follows: (1) a constant voltage step was performed at a constant voltage of 300 V until the volt-hours reached 750 Vhr (the current variation width during electrophoresis for 30 minutes before the end of this step was 5 μA); (2) the voltage was increased gradually to 1000 V for 300 Vhr; (3) the voltage was further increased gradually to 5000 V for 4500 Vhr; and then (4) the voltage was held at a constant voltage of 5000 V until the total Vhr reached 12000.
The electrophoresis in the second dimension was SDS-PAGE, which was performed using polyacrylamide gels whose gel concentration at the distal end in the direction of electrophoresis was set to 3 to 6% and whose gel concentration at the proximal end was set to a higher value than that at the distal end. More specifically, the SDS-PAGE was performed using NuPAGE 4-12% Bris-Tris Gels (IPG well, Mini, 1 mm) produced by Life Technologies. The electrophoresis system used was XCell SureLock Mini-Cell produced by Life Technologies. The electrophoresis was run at a constant voltage of 200 V for about 45 minutes using an electrophoresis buffer composed of 50 mM MOPS, 50 mM Tris base, 0.1% (w/v) SDS and 1 mM EDTA.
Identification of antigens by immunoblotting was carried out by taking all the steps up to the step of “Second-dimensional SDS-PAGE” as described above in Example 1, followed by the steps of “Transfer to membrane”, “Immunoblotting” and “Analysis” as described below.
To be specific, proteins in the second-dimensional electrophoresis gels were transferred to a membrane (PVDF membrane) according to the following procedure. • (1) The PVDF membrane was immersed in 100% methanol followed by milliQ water, and then moved into the transfer buffer to hydrophilize the PVDF membrane. • (2) After sponge, filter paper, the second-dimensional electrophoresis gels treated by second-dimensional SDS-PAGE, the hydrophilized PVDF membrane, filter paper, and sponge were put in place in this order, the transfer system was energized at a constant voltage of 30 V for one hour. Immunoblotting
Immunoblotting of the membrane was carried out using, as a primary antibody, a serum sample from patient 1 with a fish allergy or a serum sample from a non-fish-allergic subject. This fish-allergic patient 1 was a patient diagnosed with immediate-type allergy to fish. […]

Molecule	spots detected by immunoblotting, different from spots with serum of non-fish-allergic subject	specific binding to IgE antibodies from fish-allergic patients
Myosin-binding protein C, fast-type-like (protein, myosin-binding protein C, fast-type-like) MPEAADAVKPEGEEGEAPAEAEENTAEDDEPLPEGEEGAHQSQEITGLFLQHPETTVAITGTDIVFTAKVDSTTLSRKPTIKWLKGKWLDLGSKAGKHMQFKETFDRATKIYTWDMKIIKVVPGDAGAYRCEVTSKDKCDSSAFDISVEAVQIEEEHDSLAAFKRTDAGEDEGSLDFSALLKATKKKKKPVVDEEKADVWEILKNAQPSEYEKIAFEYGITDLRGLLKRLKKMKTVEPKHSDAFLKRMESAYSVDKGKKIVLQVEVVDPNAQVKWLKNGQEIKSSAKYIIESVGNIRTLTINKCSLADDAAYECVIGEEKSFTEVFVKEPPVTITKLLDDYHVVVGERVEFEVEVSVEGAHVNWMFEDQELSRDTHKYRFKKDGLKHMLIIQEATLDDIGMYWCFTNGGRTKGELEVEEKELEVLQNIADLTVKAEDQAMFKCEVSDEKVTGKWLKDGVEVLPSSRIKLTHIGRIHRLTIDDVKPEDAGDYTFIPDGYALSLSAKLNFLEIKIDYVPRQEPPKIHLDTTGNMVSQNTIIVVAGNKLRLDVEISGEPPPTVVWAKGDTAITAVEGRVRTESRKDLSCFVIEGAEREDEGNYTIIVTNPAGEDKAHLFVKIVDVPDCPENVKCTSVGEDCATMVWDPPKFDGGAPVTGYLMERKKKGSTRWTKLNFDVYEGVTYEAKRMIEGVLYEMRVYAVNGIGMSQPSLNSKPFMPIAATSEPLGLKVHDVTDTTCTLKWLAPEKIGAGGLDGYVIEYCKEGDTEWVVANTELVERQNYTVRNLPTAEKINFRVVAVNIAGRSPPTGLSQPVTIREIVELPKIRLPRYLRQKYIRRVGDKINLTIPFQGKPRPKVQWYKDGEELDTRVASIRNSEVDSILFIRSAERSHSGKYELVLQIENMEARAILEIRIVEAPGPPEVVKVTDVWGFNAALEWKPPKDDGNCEITGYTIQKADKKTNEWFTIYEHNRRTNCTASDLIMGNEYMFRVFSENLVGKSEDFCLSKDTAIIPKIGLEYNPPPFKEKDMQSAPKFIQPLLDRSVVAGYSTTISSAVKTCPKPKIRWLRNKIPLDENPRFLMQNNQGVLTLNIRKPSQYDGGKFTCKAINSLGEDVVECTLLVRALKDKEDGDEK	newly detected	specific binding to IgE antibodies
Glycogen phosphorylase, muscle form-like (protein, glycogen phosphorylase, muscle form-like) MSKPLSDHDKRKQISVRGLAGVENVAELKVAFNRHLHFTLVKDRNVANKRDYYFALANTVRDHLVGRWIRTQQYYYEKDPKRVYYISLEFYMGRTLQNTMVNLALENACDEAIYQLGLDMEELEDMEEDAGLGNGGLGRLAACFLDSMASLGLAAYGYGIRYEFGIFNQKIVNGWQVEEADDWLRYGNPWEKARPEYMRPVKFYGRTEHTPDGVKWVDTQVVLALPYDTPIPGYRNNIVNTMRLWSAKAPCDFNLKDFNVGGYIQAVLDRNLCENISRVLYPNDNFFEGKELRLKQEYFVVAATLQDVVRRFKASKFGSREIVRTDFAELPNKVAIQLNDTHPAMAIPELMRVLVDEEKLGWDKAWDVCVRTCAYTNHTVLPEALERWPIDLFHHLLPRHLEIIYEINRRFMEYVASKFPGDNDRLRRMSLIEEGGCKKVNMAHLCIVGSHAVNGVARIHSEILIATLFKDFYELDPHKFQNKTNGITPRRWLVMCNPGLAEVIAEKIGEEFIRDLDQLKRLLKFVNDDAFIRDIAKVKQENKLKFAVHLEEHYKVKINPQSMFDFQVKRIHEYKRQLLNCLHMITYYNRIKKEPNKHWTPRTIMVGGKAAPGYHTAKMIIRLITAIGEVVNHDPVVGDRLKVIFLENYRVTLAEKAIPSADLSEQISTAGTEASGTGNMKFMLNGALTIGTMDGANVEMAEEAGEENFFIFGMRVEDVDAMDAGKGYHASEYYNRIPELKQAMDQIAGGFFSPKQPDLFKELVDLLMHHDRFKVFADYEAYIKCQDKVNQLYKNPKEWTKMVIHNIAGCGKFSSDRTIAQYAREIWGMEPSLEKIPAPDEKLK	newly detected	specific binding to IgE antibodies
